Experiment: yeast display, Sf9 membrane polyspecificity reagent, FACS + sequencing; frameworks hold sequencing errors
Method in brief: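 Galactose-induced (36–48 hours) yeast carrying a synthetic nanobody display library were exposed to 10% biotinylated, detergent-solubilized Sf9 membrane reagent at 4 °C for 1 hour. FACS followed streptavidin microbead enrichment, using low and high (top ~1%) gates for expression (anti-HA) and reagent binding (streptavidin). Colony PCR, MiSeq 2 × 250 sequencing and CDR-length filtering followed. Labels for polyreactivity reflect the gate of origin.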

QVQLVESGGGLVQAGGSLRLSCAPSRFIFFFYAMGWYRQAPGKERELVAAISDGVSTYYADSVKGRFTISRDNAKNTVYLQKNSLKPDDTAVYYCAVSRGDDPEFDYWGKGTQVTVSS
polyreactivity (PSR sort gate): low polyreactivity

QVQLVESGGGLVQAGGSLRLSCAPSRFIFGHYAMGWYRQAPGKERELVAGINSSGGSTHYADSVKGRFTISRDNAKNTVYLQMNSLKPEDTAVYYCAADVYRFYAGSRYYYWGQGTQVTVSS
polyreactivity (PSR sort gate): low polyreactivity

QVQLVESGGGLVQAGGSLRLSCAPYGLTFYGYTMGWYIQAPGKQRELVASISWSGGNKYYADSVKGRFTISRDKAKNSVYLQMNSLKPEDTAVYYCAAEHWTYDCVDYWGQGTQVTVSW
polyreactivity (PSR sort gate): low polyreactivity

QVQLVESGGGLVQAGGSLRLSCASGRIFKKNALGWYRQAPGKERELVAGITISGGRTYYADSVKGRFTISRDNAKNTVYLQMNSLKPEDTAVYYCNAGPDRRVSYYRLLDHWGQGTQVTVSS
polyreactivity (PSR sort gate): low polyreactivity

QVQLVESGGGLVQAGGSLRLSCASSGFIFFYYTKGWYRQAPGKERELVAAISTGGSTYYADSVKGRFTISRDNAKNTVYLQMNSLKPEDTAVYYCAALYWYEYTYLEYDYWGQGTQVTVSS
polyreactivity (PSR sort gate): high polyreactivity

QVQLVESGGGLVQAGGSLRLSCASSGFTFKDYAMGWYRQAPGKERELVAAISYSGGSTYYADSVKGRFTLSRDNAKNTVYLQMNSLKPEDTAVYYCARYFRRSAIYTRPRMDYWGQGTQVTVSS
polyreactivity (PSR sort gate): high polyreactivity

QVQLVESGGGLVQAGGSLRLSCASSGFTFSIYAMGWYRQAPGKERELVAAISSSGGITYYADAVKGRFTISRDNAKNTVYLQMKSLKPEDTAVYYWNKYFKTFYVSYLHDYWGQGTQVSVSS
polyreactivity (PSR sort gate): high polyreactivity

QVQLVESGGGLVQAGGSLRLSCASSGFTFWRNAMGWYRQAPGKERELVAAINWSGGSTYYADSVKGRFTISRDNAKNTVYLQMNSLKPEDTAVYYCAADLSSRGISQDDYWGQCTQVTVSS
polyreactivity (PSR sort gate): high polyreactivity

QVQLVESGGGLVQAGGSLRLSCASSGFTFWTYDMGWYRQAPGKERELVAAIDSGGSTYYADSVKGRFTISRDNAKNTVYLQMNSLKPEDTAVYYCNAGPSVTSGYDYDYWGQGTQVTVSS
polyreactivity (PSR sort gate): low polyreactivity

QVQLVESGGGLVQAGGSLRLSCASSGIILYYYVMGWYRQAPGKERELVAAINRSGTSTYYADSVKGRFTISRDNAKNTVYLQMNSLKPEDTAVYYCAAERYWSGGVFDYDYWGQGTQVTVSS
polyreactivity (PSR sort gate): high polyreactivity

QVQLVESGGGLVQAGGSLRLSCASSGITFDYYAMGWYRQAPGKERELVASISSDSSTYYADSVKGRFTISRDNAKNTVYLQMNSLKPEDTAVYYCNAGDTTFPFYYWGQGTQVTVSS
polyreactivity (PSR sort gate): low polyreactivity

QVQLVESGGGLVQAGGSLRLSCASSGITFTFYVMGWYRQAPGKERELVAAISSGGGRTYYADSVKGRFTISRDNAKNTVYLQMNSLKPEDTAVYYCNAALYHDSEYNYWGQGTQVSVSS
polyreactivity (PSR sort gate): high polyreactivity

QVQLVESGGGLVQAGGSLRLSCASSGKIFLSYAMGWYRQAPGKERELVAGISASGGRTYYADSVKGRFTISRDNAKNTVYLQMNSLKPEDTAVYYCNADTTPQGNVRDGYWGQGTQVTVSS
polyreactivity (PSR sort gate): high polyreactivity

QVQLVESGGGLVQAGGSLRLSCASSGLILFYNAMGWYRQAPGKERELVATIRRGGTTYYADSVKGRFTISRDNAKNTVYLQMNSLKPEDTAVYYCAKESLYQYDYWGQGTQVTVSS
polyreactivity (PSR sort gate): low polyreactivity

QVQLVESGGGLVQAGGSLRLSCASSGLTFELYAMGWYRQAPGKERELVAAITWSGGRTYYADSVKGRFTISRDNAKNTVYLQMNSLKPEDTAVYYCAADVYPGYVGSQEYDYWGQGTQVTVSS
polyreactivity (PSR sort gate): low polyreactivity

QVQLVESGGGLVQAGGSLRLSCASSGLTLQYYAMGWYRQAPGKERELVAAITYSGGSTYYADSVKGRFTISRDNAKNTVYLQRNSLKPEDTGVYYCAKVPVRSGGTLYDYWGQGTQVTVSS
polyreactivity (PSR sort gate): low polyreactivity

QVQLVESGGGLVQAGGSLRLSCASSGRIFGSYAMGWYRQAPGKERELVAGISKSGTSTYYADSVKGRFTISRDNAKNTVYLLMNSLKPEDTADYYCAKRFDSTKAKYYYWGQGTQGTVSS
polyreactivity (PSR sort gate): high polyreactivity

Source: the nanobody polyreactivity screen of Harvey et al. (2022)
